Laboratory results reported in the RNAGym collection of RNA variant scans (doi:10.1093/molbev/msab373).

B1: Azoarcus group I ribozyme (parent)
chain: GUGCCUUGCGCCGGGAAACCACGCAAGGGAUGGUGUCAAAUUCGGCGAAACCUAAGCGCCCGCCCGGGCGUAUGGCAACGCCGAGCCAAGCUUCGGCGCCUGCGCCGAUGAAGGUGUAGAGACUAGACGGCACCCACCUAAGGCAAACGCUAUGGUGAAGGCAUAGUCCAGGGAGUGGCGAAAGUCACACAAACCGG

Variants of: B1
Experiment: reverse-splicing fitness (ratio to wild type); higher = more active; in vitro selection; Mg2+ level not given
Outline: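 An in vitro group I ribozyme library with randomized positions was T7-transcribed and gel-purified. In triplicate, 10 pmol RNA in EPPS pH 7.5 was reacted with 50 pmoles of a 30-nt RNA substrate for 1 h at 37 °C across several added MgCl2 levels (1–48 mM), then stopped with EDTA. Products were reverse transcribed from a substrate-complementary primer, PCR-amplified and sequenced (HiSeq 4000). Fitness is a variant's read proportion after selection over that before, normalised to wild type.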

Variant | reverse-splicing fitness
C82A A111G A120U A145G C169G | 0.00402
C82A A111G A120U A145G C150U C169G U176A | 0.0115
C82A A111G A120U A145G C150U C169G U176G | 0.00249
C82A A111G A120U A145G C150U C169G U176C | 0.00643
C82A A111G A120U A145C C150U U176C | 0.00422
C82A A111G A120U A145C C150U U176A | 0.00447
C82A A111G A120U A145C C150U U176G | 0.00292
C82A A111G A120U A145C C169U U176G | 0.00153
C82A A111G A120U A145C C169U U176A | 0.00302
C82A A111G A120U A145C C169U U176C | 0.00282
C82A A111G A120U A145C C150G | 0.00637
C82A A111G A120U A145C C150A | 0.00468
C82A A111G A120U A145C C150U | 0.0111
C82A A111G A120U A145C C150A U176C | 0.00355
C82A A111G A120U A145C C150A U176A | 0.003
C82A A111G A120U A145C C150A U176G | 0.00207
C82A A111G A120G A145U C150U U176A | 0.00996
C82A A111G A120G A145U C150U U176G | 0.00595
C82A A111G A120G A145U C150U U176C | 0.014
C82A A111G A120G A145U C169A | 0.00824
C82A A111G A120G A145U C169U | 0.00927

Variant | reverse-splicing fitness
C82A A111G A120G A145U C169G | 0.0112
C82A A111G A120G U176C | 0.0182
C82A A111G A120G U176A | 0.0146
C82A A111G A120G U176G | 0.00613
C82A A111G A120G C150U C169G U176G | 0.0061
C82A A111G A120G C150U C169G U176A | 0.0166
C82A A111G A120G C150U C169G U176C | 0.0192
C82A A111G A120G C150A U176G | 0.00961
C82A A111G A120G C150A U176A | 0.0129
C82A A111G A120G C150A U176C | 0.0186
C82A A111G A120U A145U C150U U176G | 0.00398
C82A A111G A120U A145U C150U U176A | 0.00864
C82A A111G A120U A145U C150U U176C | 0.0108
C82A A111G A120U A145U C169U | 0.00422
C82A A111G A120U A145U C169G | 0.00329
C82A A111G A120U A145U C169A | 0.00232
C82A A111G A120U A145U C169U U176G | 0.00199
C82A A111G A120U A145U C169U U176C | 0.00256
C82A A111G A120U A145U C169U U176A | 0.00277
C82A A111G A120G A145U C150A U176A | 0.0117
C82A A111G A120G A145U C150A U176G | 0.00563

Variant | reverse-splicing fitness
C82A A111G A120G A145U C150A U176C | 0.0154
C82A A111G A120U A145U C150A C169G | 0.00258
C82A A111G A120U A145U C150A C169A | 0.00209
C82A A111G A120U A145U C150A C169U | 0.00275
C82A A111G A120U A145U C150G C169U U176A | 0.00252
C82A A111G A120U A145U C150G C169U U176G | 0.0026
C82A A111G A120U A145U C150G C169U U176C | 0.00353
C82A A111G A120U C150A C169U | 0.00375
C82A A111G A120U C150A C169G | 0.00463
C82A A111G A120U C150A C169A | 0.00447
C82A A111G A120U | 0.0351
C82A A111G A120G C150U U176C | 0.0156
C82A A111G A120G C150U U176A | 0.0108
C82A A111G A120G C150U U176G | 0.00781
C82A A111G A120U A145U C150A U176A | 0.00478
C82A A111G A120U A145U C150A U176C | 0.00602
C82A A111G A120U A145U C150A U176G | 0.00197
C82A A111G A120U A145G C150U C169U | 0.00572
C82A A111G A120U A145G C150U C169G | 0.00703
C82A A111G A120U A145G C150U C169A | 0.00667
C82A A111G A120U A145C C169A U176A | 0.00258

Variant | reverse-splicing fitness
C82A A111G A120U A145C C169A U176C | 0.00231
C82A A111G A120U A145C C169A U176G | 0.00163
C82A A111G A120U A145C C150G C169A | 0.0025
C82A A111G A120U A145C C150G C169U | 0.00332
C82A A111G A120U A145C C150G C169G | 0.00351
C82A A111G A120U A145G U176G | 0.00317
C82A A111G A120U A145G U176C | 0.0165
C82A A111G A120U A145G U176A | 0.00959
C82A A111G A120U A145U C150U C169A U176A | 0.00237
C82A A111G A120U A145U C150U C169A U176C | 0.00235
C82A A111G A120U A145U C150U C169A U176G | 0.00171
C82A A111G A120G C169A | 0.0105
C82A A111G A120G C169G | 0.0125
C82A A111G A120G C169U | 0.0111
C82A A111G A120G A145U C150A C169U U176G | 0.00457
C82A A111G A120U A145U C150U C169G U176G | 0.00208
C82A A111G A120U A145U C150U C169G U176C | 0.00298
C82A A111G A120U A145U C150U C169G U176A | 0.00294
C82A A111G A120U A145C C150G C169G U176A | 0.00289
C82A A111G A120U A145C C150G C169G U176G | 0.00217
C82A A111G A120U A145C C150G C169G U176C | 0.00289
